Test results as given in patent US9012420B2, “Aptamer for chymase, and use thereof” (Ribomic Inc., priority 2009, dated 2015).
Oligonucleotides are written 5' to 3', each unit as a sugar letter and its base; * is a phosphorothioate linkage, no mark a phosphodiester; rarer units and linkages stand in square brackets, end groups in braces. Plain capitals give the bases only. r = 2'-OH (RNA); f = 2'-fluoro

T1: chymase (recombinant) (UniProt P23946 P23946:22-247)
T1 sequence: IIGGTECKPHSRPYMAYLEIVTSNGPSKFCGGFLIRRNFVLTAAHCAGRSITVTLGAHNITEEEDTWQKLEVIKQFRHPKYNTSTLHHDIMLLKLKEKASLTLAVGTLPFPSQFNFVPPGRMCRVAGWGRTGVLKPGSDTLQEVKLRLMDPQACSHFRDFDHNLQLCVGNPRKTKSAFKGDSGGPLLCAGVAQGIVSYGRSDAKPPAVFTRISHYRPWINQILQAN

T2: chymase (Homo sapiens, UniProt P23946)
T2 sequence (P23946 22-247): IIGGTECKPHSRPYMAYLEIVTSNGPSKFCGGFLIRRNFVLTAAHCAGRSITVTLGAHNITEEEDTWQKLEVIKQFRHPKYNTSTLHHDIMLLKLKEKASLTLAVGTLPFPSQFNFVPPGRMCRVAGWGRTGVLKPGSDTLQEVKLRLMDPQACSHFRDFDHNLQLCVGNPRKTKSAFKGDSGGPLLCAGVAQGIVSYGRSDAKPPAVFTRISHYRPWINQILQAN

B1: 56(31) (ssRNA)
RNA: GGGUUAGAUAGAGUUAAAAACCC
modifications: idT-G(M)G(M)G(M)U(F)U(F)AG(M)AU(F)A(M)GAG(M)U(F)U(F)A(M)A(M)A(M)A(M)A(M)C(F)C(F)C(F)-idT (M=2'-OMe, F=2'-F)
B2: 56(32) (ssRNA)
RNA: GGGUUAGAUAGAGUUAAAAACCC
modifications: idT-G(M)G(M)G(M)U(F)U(F)AGAU(F)A(M)GAG(M)U(F)U(F)A(M)A(M)A(M)A(M)A(M)C(F)C(F)C(F)-idT (M=2'-OMe, F=2'-F)
B3: 56(38) (ssRNA)
RNA: GGGUUAGAUAGAGUUAAAAACCC
modifications: idT-G(M)G(M)G(M)U(F)U(F)sAsGAU(F)A(M)GAG(M)U(F)U(F)A(M)A(M)A(M)A(M)A(M)C(F)C(F)C(F)-idT (M=2'-OMe, F=2'-F, s=PS)
B4: 61(1) (ssRNA)
RNA: GGGUUAGAUAGAUUUAAAAACCC
modifications: G(M)G(M)G(M)U(F)U(F)AG(M)A(M)U(F)A(M)GAU(F)U(F)U(F)A(M)A(M)A(M)A(M)A(M)C(F)C(F)C(F) (M=2'-OMe, F=2'-F)
B5: SEQ 70 (mixed)
mixed: GGGTTAGAUAGAGUUAAAAACCC
modifications: idT-G(M)G(M)G(M)ttAG(M)A(M)U(F)A(M)GAG(M)U(F)U(F)A(M)A(M)A(M)A(M)A(M)C(F)C(F)C(F)-idT (lower case DNA)
B6: SEQ 71 (mixed)
mixed: GGGUUAGAUAGAGTUAAAAACCC
modifications: idT-G(M)G(M)G(M)U(F)U(F)AG(M)A(M)U(F)A(M)GAG(M)tU(F)A(M)A(M)A(M)A(M)A(M)C(F)C(F)C(F)-idT (lower case DNA)
B7: SEQ 72 (mixed)
mixed: GGGTTAGAUAGAGTUAAAAACCC
modifications: idT-G(M)G(M)G(M)ttAG(M)A(M)U(F)A(M)GAG(M)tU(F)A(M)A(M)A(M)A(M)A(M)ccc-idT (lower case DNA)
B8: 72(1) (mixed)
mixed: GGGTTAGAUAGAGTUAAAAACCC
modifications: idT-G(M)G(M)G(M)ttAG(M)aU(F)A(M)GAG(M)tU(F)A(M)A(M)A(M)A(M)A(M)ccc-idT (lower case DNA)
B9: GGGACGGUAGGAAUUCGUCCAUUCUACAGAUAGAGAUAAAGUAGAAUUUAACAAAACAUAGAAGAGCGGCCGC (nucleic acid)
chain: rGrGrGrAfCrGrGfUrArGrGrArAfUfUfCrGfUfCfCrAfUfUfCfUrAfCrArGrAfUrArGrArGrAfUrArArArGfUrArGrArAfUfUfUrArAfCrArArArAfCrAfUrArGrArArGrArGfCrGrGfCfCrGfC
B10: GGGACGGUAGGAAUUCCGCAACCAUCCCGUAACUAUGGUUAGAUAGAGUUAAAAACCAUAGAAGAGCGGCCGC (nucleic acid)
chain: GGGACGGUAGGAAUUCCGCAACCAUCCCGUAACUAUGGUUAGAUAGAGUUAAAAACCAUAGAAGAGCGGCCGC
modifications: chemistry not given here
B11: GGGACGGUAGGAAUUCUCGUUCCUGACAGCAUUUGAGAUAGAUUUAAACAAACGCACAUAGAAGAGCGGCCGC (nucleic acid)
chain: GGGACGGUAGGAAUUCUCGUUCCUGACAGCAUUUGAGAUAGAUUUAAACAAACGCACAUAGAAGAGCGGCCGC
modifications: chemistry not given here
B12: GGGACGGUAGGAAUUCAGCUGACUCCAAUGCACACGUAGAUAGAGUUAAAACGUUGCAUAGAAGAGCGGCCGC (nucleic acid)
chain: rGrGrGrAfCrGrGfUrArGrGrArAfUfUfCrArGfCfUrGrAfCfUfCfCrArAfUrGfCrAfCrAfCrGfUrArGrAfUrArGrArGfUfUrArArArAfCrGfUfUrGfCrAfUrArGrArArGrArGfCrGrGfCfCrGfC
modifications: aptamer
B13: GGGACGGUAGGAAUUCGUCGAUUCUACAGAUAGAGAUAAAGUAGAAUUUAACAAAACAUAGAAGAGCGGCCGC (nucleic acid)
chain: rGrGrGrAfCrGrGfUrArGrGrArAfUfUfCrGfUfCrGrAfUfUfCfUrAfCrArGrAfUrArGrArGrAfUrArArArGfUrArGrArAfUfUfUrArAfCrArArArAfCrAfUrArGrArArGrArGfCrGrGfCfCrGfC
modifications: aptamer

These molecules were tested against T1, chymase (recombinant) (assay: inhibition; SPR ++). Conditions: tags: SIGMA, expressed in yeast.
Experimental: Here, Suc is a protecting succinyl group, and MCA is a 4-methylcoumaryl-7-amide group; upon cleavage of the C-terminal side of phenylalanine, AMC (7-amino-4-methyl-coumarine) is released. By detecting the fluorescence of this AMC, the enzyme activity of chymase can be determined. The assay was performed using a 96-well plate (F16 Black Maxisorp Fluoronunc, manufactured by Nunc), with a reaction mixture volume of 100 μL, in solution C as a buffer solution. First, each nucleic acid was serially diluted to 0.0027-2 μM concentrations in solution C to obtain 50 μL solutions. After 10 μL of the 1 mM substrate prepared in solution C was added thereto, the plate was set to the microplate reader SpectraMax190 (manufactured by Molecular Devices Corporation), and incubated at 37° C. for 5 minutes. Separately, 0.05 μg (or 0.005 μg) of chymase (recombinant, manufactured by SIGMA) was diluted in solution C to obtain a 40 μL chymase solution, and incubated at 37° C. for 5 minutes. The chymase solution was added to the mixture of the nucleic acid and substrate to initiate an enzyme reaction. The final chymase concentration in the reaction mixture was 16.7 nM (or 1.67 nM), the final substrate concentration being 100 μM. The plate containing the reaction mixture was set to the microplate reader SpectraMax190 (manufactured by Molecular Devices Corporation), and examined for time-dependent changes in the fluorescence intensity at 37° C. for 5 minutes (or 30 minutes) (excitation wavelength 380 nm, detection wavelength 460 nm). A linear approximation of the increase in the fluorescence of the AMC released from the substrate by chymase activity was generated, and its slope was taken as the initial velocity […]. For control, samples were treated and analyzed in the same manner in two cases: use of a 30N or 40N (a nucleotide of 30 or 40 consecutive bases represented by N; N is A, G, C or T) nucleic acid pool (negative control), and use of chymostatin, a known chymotrypsin-like serine protease inhibitor (positive control). Taking the initial reaction velocity without the nucleic acid and inhibitor (V_0) as a 100% enzyme activity, the inhibitory rate of each test substance was calculated using the following equation: […]
The chymase inhibitory activity was measured in the same manner as in Example 3.
B1 gave an IC50 of 23 nM.
B2 showed an IC50 of 17 nM.
In the case of B3, the IC50 is reported as 19 nM.
Molecule B4 has an IC50 of 78 nM.
In the case of B5, the IC50 is reported as 27 nM.
With B6 the IC50 was 28 nM.
With B7 the IC50 was 20 nM.
For B8, the IC50 was 13 nM.

These molecules were tested against T2, chymase (assay: Surface plasmon resonance (Biacore T100), aptamer immobilized on SA chip, chymase injected as analyte). Conditions: Table 1; about 1000 RU nucleic acid immobilized, chymase 0.2 μM analyte, running buffer solution A; compared with 40N.
Format: binding
Experimental: Binding strength is measured using Biacore T100 (manufactured by GE Healthcare). In a method of measurement, the aptamer is first immobilized onto a sensor chip, the amount immobilized being about 1000 RU. 20 μL of a chymase solution for analyte, prepared at 0.2 μM, is injected, and the binding of chymase to the aptamer is detected. An RNA comprising a random nucleotide sequence of 30 or 40 nucleotides is used as a negative control.
The binding activities against chymase of the nucleic acids shown by SEQ ID NO: 4-20 and 22-34 were determined by the surface plasmon resonance method using Biacore T100 (manufactured by GE Healthcare). The sensor chip used was the SA chip, which had streptavidin immobilized thereon. Bound thereto was about 1500 RU of a 16-nucleotide Poly dT with biotin bound to the 5′ end thereof. […] 20 μL of chymase for analyte, prepared at 0.2 μM, was injected. Solution A was used as a running buffer.
The binding activities against chymase of the nucleic acids shown by SEQ ID NO: 38-48 were evaluated by the surface plasmon resonance method. In the evaluations for SEQ ID NO: 38-48, measurements were taken in the same manner as Example 1. Solution C was used as a running buffer.
With B9 the “Binding activity as determined using Biacore” value (from here on “Binding activity as determined”) was “higher binding activity than 40N”.
For B10, the “Binding activity as determined” value was “higher binding activity than 40N”.
B11 was tested, and the “Binding activity as determined” value was “higher binding activity than 40N”.
In the case of B12, the “Binding activity as determined” value is reported as “higher binding activity than 40N”.
B13 was tested, and the “Binding activity as determined” value was “higher binding activity than 40N”.
